Test results published in patent US8075919B2, “Methods for fabrication, uses and compositions of small spherical particles prepared by controlled phase separation” (Baxter International Inc., priority 2003, dated 2011).

Columns and labels:
[1] = test system: DNA-Methyl Green; settings: listed value for the starting material; cited from earlier work
[2] = target: porcine pancreatic elastase (PPE) (Sus scrofa, UniProt P00772); assay: Inhibition of porcine pancreatic elastase by rAAT (specific activity); type: biochemical
Sequence of porcine pancreatic elastase (PPE) (P00772 27-266): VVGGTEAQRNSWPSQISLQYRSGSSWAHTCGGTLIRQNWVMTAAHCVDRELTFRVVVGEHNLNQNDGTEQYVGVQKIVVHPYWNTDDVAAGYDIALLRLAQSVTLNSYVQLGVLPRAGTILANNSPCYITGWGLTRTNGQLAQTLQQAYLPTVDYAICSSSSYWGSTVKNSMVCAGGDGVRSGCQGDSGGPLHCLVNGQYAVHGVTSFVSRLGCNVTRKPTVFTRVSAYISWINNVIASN
Experimental: To determine the specific activity, the rAAT small spherical particles were dissolved in 0.2M Tris-HCl pH 8.0 at room temperature. The resulting solution was analyzed by an assay which measures the capacity of rAAT to inhibit the ability of porcine pancreatic elastase (PPE) to hydrolyze synthetic peptides that contain a p-nitroanilide group at their C-terminus. The same solution of rAAT small spherical particles was then assayed for protein concentration using the Bicinchoninic Acid (BCA) assay. A control rAAT starting material solution was also analyzed in both assays. Because the activity assay was developed to determine the activity based on a concentration of 1 mg/ml protein per sample, the activity value was corrected based on the actual protein concentration as determined by BCA, giving the specific activity value:
[formula] Inhibition of Porcine Pancreatic Elastase by rAAT

Row | Substance | theoretical activity as listed [1] [Ku/mg protein] | specific activity ([2]; scale 100-300 mg (n = 12, column)) [IU/mg] | specific activity ([2]; scale 200-300 mg (n = 8, vessel)) [IU/mg]
1 | DNase [DNase starting material] | 775 | – | –
2 | alpha-1-antitrypsin [control rAAT starting material] | – | 64.34 ± 4.95 | 65.87 ± 0.98
